Measured values as given in patent US20080139790A1 (ARANA THERAPEUTICS, published 2008).
Substitutions are numbered along the chain they refer to.

T1: rat MOG (myelin-oligodendrocyte glycoprotein) (rat, UniProt Q63345 28-245)
T1 construct: mature; Not a purified protein: identified by the band size of about 25 kDa in a western blot of rat spinal cord lysate; also called antigen of M26; protein of size 25 kDa
T1 sequence (looked up): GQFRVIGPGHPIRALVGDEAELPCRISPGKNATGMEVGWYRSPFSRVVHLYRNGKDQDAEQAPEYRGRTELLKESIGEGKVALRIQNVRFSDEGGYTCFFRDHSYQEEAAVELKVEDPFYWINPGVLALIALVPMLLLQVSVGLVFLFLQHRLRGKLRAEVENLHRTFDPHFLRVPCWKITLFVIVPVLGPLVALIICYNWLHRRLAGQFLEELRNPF

B1: CDR2-substituted domain antibody SEQ ID No 26 (other)
chain: DIQMTQSPSSLSASGDRVTITCRASQSIDSYLHWYQQKPGKAPKLLIYAASNRASGVPSRFSGSGSGTDFTLTISSLQPEDFATYYCQQVVWRPFTFGQGTKVEIKR
notes: not shown: 6xHIS tag introduced by vector pBAD/gIII
B2: CDR2-substituted domain antibody SEQ ID No 31 (other)
chain: B1 chain with A49D, N52S, R53L, A54Q, S55P
notes: as for B1
B3: CDR2-substituted domain antibody SEQ ID No 25 (other)
chain: B1 chain with A49K, A50V
notes: Secretory signal peptide from the vector, expressed in E. coli periplasm; not shown: 6xHIS tag introduced by vector pBAD/gIII
B4: CDR2-substituted domain antibody SEQ ID No 28 (other)
chain: B1 chain with A49Y, N52F, R53L, A54Q, S55G
notes: as for B1
B5: unsubstituted acceptor anti-TNFα domain antibody (SEQ ID No: 7) (other)
chain: B1 chain with A49S, N52E, R53L, A54Q
notes: Single variable domain (domain antibody, dAb) from Basran et al. WO 2004/081026, CDR2 SASELQS; also called acceptor domain antibody; not shown: 6xHIS tag from vector pBAD/gIII (detection was by anti-HIS antibody); its positi
B6: CDR2-substituted domain antibody SEQ ID No 29 (other)
chain: B1 chain with A49R, A50V
notes: as for B1
B7: AB138 (antibody, human IgG1, kappa, V domains shown)
VH: QVQLVQSGAEVKKPGASVKVSCKASGYTFTSYAISWARQPPGQGLEWMGAFDPEYGSTTYAQKFQGRVTMTADTSTSTAYMELSSLRPEDTAVYYCARDVNFGNYFDYWGQGTLVTVSS
VL: ELVMTQSPATLSLSPGERATVSCRAGQSVSYYLAWYQQKPGQAPRLLIYGASTRATGIPARFSGSRSGTDFTLTISSLEPEDFAVYYCQQYSSWPPTFGQGTKLEIKR
notes: Expressed in CHOK1SV cells, purified on Protein A; also called marmoset human fusion antibody; MOG specific marmoset derived antibody variable regions with human IgG1 / kappa constant regions

Target: T2, TNF-α (Peprotech Cat No: 300-01A) (UniProt P01375 77-233)
T2 construct: Coated on the ELISA plate at 1 µg/mL
T2 sequence (P01375 77-233 limits assumed): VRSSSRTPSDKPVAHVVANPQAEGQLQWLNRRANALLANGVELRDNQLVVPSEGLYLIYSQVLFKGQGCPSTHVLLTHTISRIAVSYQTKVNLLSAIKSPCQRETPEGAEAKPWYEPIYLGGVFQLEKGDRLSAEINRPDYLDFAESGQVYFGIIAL
Assay: ELISA, TNF-α coated at 1 µg/mL, detection with anti-HIS HRP
Experimental: TNF-α (Peprotech Cat No: 300-01A) was diluted to 1 μg/mL in carbonate coating buffer ([…] pH 9.6). 100 μL of this solution was added to a well of a 96 well plate and incubated at 4° C. overnight in a humidified container. The plate was then washed three times with wash buffer (0.01M PBS pH 7.2, 0.05% Tween-20) and then three times with 0.01M PBS pH 7.2. The wells were then blocked by adding 200 μL blocking buffer (1% w/v BSA in 0.01M PBS pH 7.2) to each well and incubating the plate at 25° C., in a humidified container, for 1 hour. Desalted domain antibody protein sample was diluted in antibody diluent (1% w/v BSA, 0.05% Tween-20 in 0.01M PBS pH 7.2) and added to the wells contain TNF-α and allowed to incubate for 1 hour at 25° C. The plate was then washed as previously described. 100 μL of Anti-HIS antibody HRP conjugate (Sigma-Aldrich, Australia Cat No: A7058) at 1:2000 in antibody diluent was used to detect bound domain antibody. Wells with antibody diluent only were used to assess background absorbance. After incubation at 25° C., in a humidified container, for 1 hour the plate washed again as previously described. 100 μL TMB substrate solution (Zymed, Cat No: 00-2023) was added to each well and the colour allowed to develop for 4 min. 100 μL of 1M HCl was added to terminate the colour development reaction and absorbance was determined at 450 nm (ref. 620 nm)

binding result	Binder
binds	B1
binds	B2
binds	B3
binds	B4
binds	B5
binds	B6

Target: T1, rat MOG (myelin-oligodendrocyte …)
Assay: western blot of rat spinal cord lysate, AB138 at 10 ug/mL, anti-human IgG HRP
Experimental: The ability of AB138 to retain binding to the antigen of M26, rat MOG (myelin-oligodendrocyte glycoprotein), was investigated by Western Blot. 130 mg of rat spinal cord (IMVS, Australia) was homogenized in 1.8 ml CelLytic M Cell Lysis Reagent (SIGMA, C2978) and incubated for 30 minutes at 4° C. Further homogenization was performed by drawing the lysate through a 27 g1/2 needle several times followed by centrifugation at 4° C. and 13000 g for 30 minutes. The pellet and supernatant was diluted into SDS-PAGE sample buffer (125 mM Tris-HCl pH 6.8, 5% SDS, 0.25% bromophenol blue, 25% glycerol). Along with this 200 μl CHOK1SV cells at 1×10⁶ viable cells per ml were spun down at 13000×g at 4° C. for 1 minute and resuspended in 200 μl CelLytic M Cell Lysis Reagent (SIGMA). Following centrifugation at 4° C. and 13000×g for 30 minutes the supernatant was mixed with the appropriate amount of SDS-PAGE sample buffer. All samples, along with a sample of molecular weight markers, were run on a 4-20% Novex pre-cast gel (Invitrogen, Australia) for 2 hours at 120V. Proteins were then transferred to PVDF (BioRad, Australia) using a western blot apparatus in 1× Tris-Glycine Buffer with 20% methanol (BioRad, Cat 161+-0771) at 4° C. at 250 mA for 2 hours. […] Following washing, bound antibody was detected using the ECL Western Blotting Analysis System, (Amersham Biosciences Cat: RPN2109). […]

binding result	Binder
binds	B7
